The source of these data is US20240182596A1 (TUBULIS, published 2024).

One may read the EC50 (read off the curve) as the concentration giving half of the maximal effect.

Positions count from the first letter of the chain named.

Experiment [1] has as its target T1, human Napi2b-mCherry on HEK293 cells (human, UniProt O95436 1-690).
T1 construct: also called Napi2b (SLC34A2); HEK293 cells overexpressing Napi2b
T1 sequence: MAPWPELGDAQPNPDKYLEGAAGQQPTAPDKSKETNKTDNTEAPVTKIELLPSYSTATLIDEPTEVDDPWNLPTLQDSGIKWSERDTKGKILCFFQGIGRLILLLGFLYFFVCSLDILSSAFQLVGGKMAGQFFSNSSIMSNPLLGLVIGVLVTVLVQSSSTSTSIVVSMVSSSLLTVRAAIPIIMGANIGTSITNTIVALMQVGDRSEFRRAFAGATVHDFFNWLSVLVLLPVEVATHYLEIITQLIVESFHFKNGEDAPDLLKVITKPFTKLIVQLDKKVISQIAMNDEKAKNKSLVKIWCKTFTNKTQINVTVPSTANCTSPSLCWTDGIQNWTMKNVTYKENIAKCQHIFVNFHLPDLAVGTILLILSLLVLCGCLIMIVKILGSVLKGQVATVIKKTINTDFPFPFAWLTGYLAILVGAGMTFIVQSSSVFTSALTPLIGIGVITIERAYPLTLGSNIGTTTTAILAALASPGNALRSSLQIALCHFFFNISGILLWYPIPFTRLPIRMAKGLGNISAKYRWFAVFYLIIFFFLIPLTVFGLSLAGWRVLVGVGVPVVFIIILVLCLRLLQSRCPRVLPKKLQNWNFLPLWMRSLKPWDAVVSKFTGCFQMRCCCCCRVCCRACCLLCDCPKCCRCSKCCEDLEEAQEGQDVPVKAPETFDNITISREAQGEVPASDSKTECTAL
Nature of the experiment: flow cytometry on HEK293 cells stably expressing human full-length NaPi2b-mCherry, Alexa-dye anti-human IgG H+L secondary antibody, MFI ratio, one-site specific binding fit; the Kd table prints no unit, the concentration axis is in nM.
Source text: (§1) HEK293 cells stably overexpressing human and rat Napi2b were generated by stable integration of a human or rat full-length Napi2b-mCherry-(GGGS)3x-mCherry expression construct under control of a human EF1 promoter and a Puromycin-selection cassette under a CMV promoter into the parental HEK293 cell line. In brief, cells were transfected with the linearized plasmids using Lipfectamine 2000 (Thermo Fisher) and selected with Puromycin antibiotic. Cells were then single cell cloned in 96-well plates via serial dilution under continuous antibiotic selection. Clones were screened for target expression via flow cytometry and mCherry fluorescence via flow cytometry and fluorescence microscopy. Target- and mCherry-positive clones were expanded and used for further experiments. […] Binding of antibodies was investigated on mCherry-positive cells. Mean fluorescence intensity (MFI) ratios were normalized to the secondary antibody control. The assay was performed in duplicates and data points were analyzed by a non-linear regression using a one-site specific binding model to derive KD values using Prism 9 software.

Experiment [2] deals with T2, purified recombinant human Napi2b antigen consisting of Napi2b-extracellular-loop2 expressed as … (human, UniProt O95436 234-362, limits assumed).
T2 construct: Expressed in Expi-HEK293 cells; also called immobilized human NaPi2B; not shown: Fc part; 6-His tag
T2 sequence: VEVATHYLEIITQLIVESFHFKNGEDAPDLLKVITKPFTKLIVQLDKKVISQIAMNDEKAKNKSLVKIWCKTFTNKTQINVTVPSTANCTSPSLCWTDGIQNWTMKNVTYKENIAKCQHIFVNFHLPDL
Nature of the experiment: ELISA, coated Napi2b-extracellular-loop2-Fc-6-His, apparent KD from one-site fit. (ELISA stands for enzyme-linked immunosorbent assay.)

Experiment [3] has as its target T3, HEK293 cyno-NaPi2B-mCherry (Macaca fascicularis, UniProt A0A2K5UHY1).
T3 construct: full-length mCherry fusion stably expressed on HEK293 cells; also called cynomolgus full-length NaPi2b-mCherry on HEK293 cells
T3 sequence (target on cells): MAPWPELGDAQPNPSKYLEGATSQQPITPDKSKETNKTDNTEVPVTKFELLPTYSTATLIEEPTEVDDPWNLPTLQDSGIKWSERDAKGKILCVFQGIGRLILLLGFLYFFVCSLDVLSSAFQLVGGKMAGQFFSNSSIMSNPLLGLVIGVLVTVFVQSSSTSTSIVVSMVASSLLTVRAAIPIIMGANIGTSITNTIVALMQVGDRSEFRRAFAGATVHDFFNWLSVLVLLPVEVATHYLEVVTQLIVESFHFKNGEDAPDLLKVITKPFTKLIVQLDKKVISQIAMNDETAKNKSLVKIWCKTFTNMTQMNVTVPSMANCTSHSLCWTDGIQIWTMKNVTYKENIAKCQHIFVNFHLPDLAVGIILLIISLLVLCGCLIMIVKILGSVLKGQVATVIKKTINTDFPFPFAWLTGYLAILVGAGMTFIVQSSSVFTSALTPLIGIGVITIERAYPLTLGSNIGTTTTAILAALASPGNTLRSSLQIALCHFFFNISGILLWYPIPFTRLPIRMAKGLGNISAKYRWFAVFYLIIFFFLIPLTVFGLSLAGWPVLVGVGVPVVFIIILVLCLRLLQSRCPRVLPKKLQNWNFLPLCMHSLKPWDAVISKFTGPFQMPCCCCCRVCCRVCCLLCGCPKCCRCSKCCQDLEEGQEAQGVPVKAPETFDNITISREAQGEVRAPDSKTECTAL
Nature of the experiment: flow cytometry on HEK293 cells stably expressing cynomolgus full-length NaPi2b-mCherry, Alexa-dye anti-human IgG H+L secondary antibody, MFI ratio, one-site specific binding fit; the Kd table prints no unit, the concentration axis is in nM.
Source text: as §1

Experiment [4] deals with T2, purified recombinant human Napi2b …. Nature of the experiment: ELISA on the isolated immobilized protein; table column Binding KD (nmol/L), ELISA.
For experiment [5], the target named is T4, human NaPi2b on NaPi2b-positive cell lines OVCAR-3 and HCC-78 (human, UniProt O95436 1-690).
T4 construct: Endogenous protein
T4 sequence: T1 sequence
Nature of the experiment: flow cytometry on OVCAR-3 cells; table column Binding KD (nmol/L), FACS (OVCAR-3).

In experiment [6] the target is T4, human NaPi2b on NaPi2b-positive cell …. Nature of the experiment: flow cytometry on NaPi2b-positive HCC-78 cells, Alexa-dye-labeled anti-human IgG H+L secondary antibody, MFI ratio normalized to the non-specific binding control. A general note: Flow cytometry measures light scatter and fluorescence of single cells or particles in a stream.
Procedure: (§2) To determine concentration-dependent binding, NaPi2b-positive OVCAR-3 and HCC-78 were incubated with antibodies in concentrations ranging from 0.00075 to 30 μg/ml, stained with an Alexa-dye-labeled anti-human IgG H+L secondary antibody (Thermo Fisher Scientific), and analyzed by flow cytometry. Mean fluorescence intensity (MFI) ratios were normalized to the non-specific binding control. The assay was performed in duplicates and data points were analyzed by a non-linear regression using a one-site specific binding model using Prism 9 software.
The target is the same in experiment [7]. Nature of the experiment: flow cytometry on NaPi2b-positive OVCAR-3 cells, Alexa-dye-labeled anti-human IgG H+L secondary antibody, MFI ratio normalized to the non-specific binding control.
Procedure: as §2
The target is the same in experiment [8]. Nature of the experiment: flow cytometry on HCC-78 cells, one-site fit.
Procedure: as §2
The target is the same in experiment [9]. Nature of the experiment: flow cytometry on OVCAR-3 cells, one-site fit.
Procedure: as §2

B1: AV-15 antibody (antibody, human IgG1, kappa, L234A L235A, V domains shown)
VH: EVQLVQSGAEVVKPGASVKMSCKASGYTFTGYNIHWVKQAPGQGLEWIGAIYPGNGDTSYKQKFRGRATLTADTSTSTVYMELSSLRSEDSAVYYCARGETARATFAYWGQGTLVTVSS
VL: DIQMTQSPSSLSASVGDRVTITCSASQDIGKFLNWYQQKPGKTVKVLIYYSSSLYSGVPSRFSGSGSGTDYTLTISSLQPEDFATYYCQQYSKVPLTFGQGTKLELKR
Consider B1, for which the Kd in [1] was 3.5 nM; in experiment [2], 0.0158 µg/mL; in [3], 2.7 nM; in experiment [4], 0.105 nM; in [5], 6.6 nM.

B2: Upifitamab (antibody, human IgG1, kappa, L234A L235A, V domains shown)
VH: B1 VH
VL: B1 VL with K31N, S51T, V94L
notes: Bought from MedChemExpress
As for B2, the “EC50 (read off the curve)” value in experiment [6] and in [7] was approximately 1 µg/mL in each case. For the same molecule, the results for the Kd in experiment [8] and in experiment [9] were 1.27 µg/mL and 1.11 µg/mL, respectively.

B3: AV-21 antibody (antibody, human IgG1, kappa, L234A L235A, V domains shown)
VH: B1 VH with Y32Q, N33I, Y52S, G56S, D57G
VL: B1 VL with K31N, S51T, V94L
Consider B3, for which the Kd in experiment [1] was 2.08 nM; in [2], 0.0125 µg/mL; in experiment [3], 1.5 nM; in experiment [4] it was 0.083 nM; in [5], 3.5 nM.

B4: AV-18 antibody (antibody, human IgG1, kappa, L234A L235A, V domains shown)
VH: B1 VH with N33I, N55S, D57A
VL: B1 VL with K31N, S51T, V94L
With B4, the Kd in [1] turned out to be 2.31 nM; in experiment [2] it was 0.0149 µg/mL; in [3], 1.61 nM; in [4], 0.099 nM; in [5], 3.8 nM.

B5: AV-29 antibody (antibody, human IgG1, kappa, L234A L235A, V domains shown)
VH: B1 VH with H35L, D57G, L70I, T101I
VL: B1 VL with K31N, S51A, V94L
As for B5, the Kd in [1] worked out at 2.66 nM; in experiment [2], 0.0124 µg/mL; in experiment [3], 1.91 nM; in [4], 0.082 nM; in experiment [5], 3.5 nM.
